In PMC10150487, “m^6A readers ECT2/ECT3/ECT4 enhance mRNA stability through direct recruitment of the poly(A) binding proteins in Arabidopsis” (Genome Biology, 2023):
Each block holds one binder with its values, some of them ahead of it.

Assays:
[1] = target: T1, GST-tagged full-length ECT2 (Arabidopsis thaliana, UniProt Q9LJE5 1-667); assay: pull-down; GST pull-down: 100 pmol pre-cleared MBP-PAB2 or MBP-PAB4 mixed with 100 pmol GST or GST-ECT2 (full length or fragments) and glutathione magnetic agarose beads, 2 h at 4 °C, IPP buffer (150 mM NaCl, 0.1% NP-40, 10 mM Tris pH 7.4, 0.5 mM DTT); immunoblot with anti-MBP and anti-GST; conditions: both partners purified
T1 construct: also called GST-ECT2; Evolutionarily conserved C-terminal region 2
T1 sequence (looked up): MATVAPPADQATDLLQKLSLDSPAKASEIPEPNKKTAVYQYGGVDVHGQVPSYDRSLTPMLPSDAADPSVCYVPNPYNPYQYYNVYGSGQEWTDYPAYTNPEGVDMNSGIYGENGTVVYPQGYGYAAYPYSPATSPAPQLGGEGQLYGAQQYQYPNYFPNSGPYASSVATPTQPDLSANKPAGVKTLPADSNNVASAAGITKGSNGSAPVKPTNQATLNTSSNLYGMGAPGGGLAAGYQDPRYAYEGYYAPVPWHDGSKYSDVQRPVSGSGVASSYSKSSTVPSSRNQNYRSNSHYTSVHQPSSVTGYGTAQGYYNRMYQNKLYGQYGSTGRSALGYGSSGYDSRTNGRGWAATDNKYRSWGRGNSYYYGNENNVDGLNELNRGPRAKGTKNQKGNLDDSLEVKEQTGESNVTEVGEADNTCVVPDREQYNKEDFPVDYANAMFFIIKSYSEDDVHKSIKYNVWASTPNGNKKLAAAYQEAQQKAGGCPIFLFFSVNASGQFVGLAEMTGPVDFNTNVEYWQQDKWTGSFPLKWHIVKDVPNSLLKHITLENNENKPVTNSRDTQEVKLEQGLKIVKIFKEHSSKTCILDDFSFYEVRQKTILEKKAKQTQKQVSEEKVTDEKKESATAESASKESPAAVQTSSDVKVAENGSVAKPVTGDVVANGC

[2] = target: T1, GST-tagged full-length ECT2; assay: pull-down; GST pull-down: purified MBP-ECT3 and SUMO-ECT4 incubated with GST-ECT2 or GST alone, GST magnetic beads, immunoblot with anti-GST, anti-MBP and anti-SUMO; conditions: both partners purified

- binding result [1]: binds
B1: MBP-tagged PAB2 (natural protein, Arabidopsis thaliana, UniProt P42731 1-629, looked up)
chain: MAQVQLQGQTPNGSTAAVTSAPATSGGATATQFGNTSLYVGDLDFNVTDSQLFDAFGQMGTVVTVRVCRDLVTRRSLGYGYVNFTNPQDAARAIQELNYIPLYGKPIRVMYSHRDPSVRRSGAGNIFIKNLDESIDHKALHDTFSSFGNIVSCKVAVDSSGQSKGYGFVQYANEESAQKAIEKLNGMLLNDKQVYVGPFLRRQERDSTANKTKFTNVYVKNLAESTTDDDLKNAFGEYGKITSAVVMKDGEGKSKGFGFVNFENADDAARAVESLNGHKFDDKEWYVGRAQKKSERETELRVRYEQNLKEAADKFQSSNLYVKNLDPSISDEKLKEIFSPFGTVTSSKVMRDPNGTSKGSGFVAFATPEEATEAMSQLSGKMIESKPLYVAIAQRKEDRRVRLQAQFSQVRPVAMQPSVGPRMPVYPPGGPGIGQQMFYGQAPPAMIPPQPGYGYQQQLVPGMRPGGGPVPSFFMPMVQPQQQRPGGGRRPGGIQHSQQQNPMMQQQMHPRGRMFRYPQGRGGSGDVPPYDMGNNMPLTIGALASNLSNATPEQQRTMLGEVLYPLVEQVEAESAAKVTGMLLEMDQTEVLHLLESPEALKAKVAEAMDVLRSVAAGGATEQLASLNLS
notes: also called MBP-PAB2; source: Escherichia coli BL-21 Gold, purified (amylose resin)

- binding result [2]: binds
B2: maltose-binding protein (MBP)-tagged ECT3 (natural protein, Arabidopsis thaliana, UniProt F4K1Z0 1-495, looked up)
chain: MANPDHVSDVLHNLSIDPTTKALAPDSETKLQGAYGGNGNDFLLNDELVEATKIGKPSLLSKDGGVTKDKGSNLKKLGYQSAAYNAKGSYGKGAYAYGYYPPAYQYPRHGYTGSYASGKTNLQYQYLTQQGRSAGNGQSYGGYMDNIYSNYGMCGPYTNGYGYGSYGYDSWKYMPNWYAVNNTYKPRNGYHGYGKENIEGLNEMNRGPRAKGFNSQDGSKVMAVSLKEQRVTETEKLSEDVSLLDPKDYNKIDFPETYTEAKFYVIKSYSEDDIHKSIKYSVWSSTPNGNKKLDASYNEAKQKSDGCPVFLLFSVNTSGQFVGLAEMVGPVDFNKTVEYWQQDKWIGCFPVKWHFVKDIPNSSLRHITLENNENKPVTNSRDTQEVKLEQGIKVIKIFKDHASKTCILDDFEFYENRQKIIQERKSKHLQIKKQTLVANADKGVMSKINLVKPQESTTASEDAAALGVAAEVTKESKVVKETELPVEKNAVATAC
notes: also called MBP-ECT3; source: Escherichia coli, purified recombinant protein

- binding result [1]: binds
B3: MBP-tagged PAB4 (natural protein, Arabidopsis thaliana, UniProt O22173 1-662, looked up)
chain: MAQVQAPSSHSPPPPAVVNDGAATASATPGIGVGGGGDGVTHGALCSLYVGDLDFNVTDSQLYDYFTEVCQVVSVRVCRDAATNTSLGYGYVNYSNTDDAEKAMQKLNYSYLNGKMIRITYSSRDSSARRSGVGNLFVKNLDKSVDNKTLHEAFSGCGTIVSCKVATDHMGQSRGYGFVQFDTEDSAKNAIEKLNGKVLNDKQIFVGPFLRKEERESAADKMKFTNVYVKNLSEATTDDELKTTFGQYGSISSAVVMRDGDGKSRCFGFVNFENPEDAARAVEALNGKKFDDKEWYVGKAQKKSERELELSRRYEQGSSDGGNKFDGLNLYVKNLDDTVTDEKLRELFAEFGTITSCKVMRDPSGTSKGSGFVAFSAASEASRVLNEMNGKMVGGKPLYVALAQRKEERRAKLQAQFSQMRPAFIPGVGPRMPIFTGGAPGLGQQIFYGQGPPPIIPHQPGFGYQPQLVPGMRPAFFGGPMMQPGQQGPRPGGRRSGDGPMRHQHQQPMPYMQPQMMPRGRGYRYPSGGRNMPDGPMPGGMVPVAYDMNVMPYSQPMSAGQLATSLANATPAQQRTLLGESLYPLVDQIESEHAAKVTGMLLEMDQTEVLHLLESPEALNAKVSEALDVLRNVNQPSSQGSEGNKSGSPSDLLASLSINDHL
notes: also called MBP-PAB4; source: Escherichia coli BL-21 Gold, purified (amylose resin)
